Assay results: PMC3741208

Experiments:
[1] = target: bovine α-thrombin (bovine)
[2] = target: bovine α-thrombin (bovine); test: enzyme inhibition kinetics (chromogenic substrate); 1 nM bovine α-thrombin, 0-200 µM Tos-Gly-Pro-Arg-p-nitroanilide, 0-800 nM madanin; 37 °C, 50 mM Tris-HCl pH 8.0, 50 mM NaCl, 1 mg/ml bovine serum albumin; fitted to the competitive inhibition model

Row | Substance | inhibition of thrombin amidolytic activity (%), 1 nM thrombin, 50 µM Tos-Gly-Pro-Arg-p-nitroanilide, 1 µM fragment, after 120 min [1] [%] | prolongation (fold) of thrombin time of human plasma, 10 µM fragment (17 s against 17 s); competition with fibrinogen for thrombin; species of the assay's thrombin not stated (human α-thrombin (human)) [fold] | other results
1 | madanin-1 fragment 22-54 (peptide) | 5.77 | – | prolongation (fold) of thrombin time of human plasma, 10 µM fragment (20 s against 17 s); competition with fibrinogen for thrombin; species of the assay's thrombin not stated (human α-thrombin (human)): 1.18 fold
2 | madanin-2 fragment 56-61 (peptide) | – | 1 | –
3 | madanin-1 (mature, recombinant) (natural protein) | – | – | inhibition of thrombin amidolytic activity (%), 1 nM thrombin, 50 µM Tos-Gly-Pro-Arg-p-nitroanilide, 1 µM inhibitor, after 120 min [1]: 43.8%; Ki [2]: 55.6 nM
4 | madanin-2 (mature, recombinant) (natural protein) | – | – | inhibition of thrombin amidolytic activity (%), 1 nM thrombin, 50 µM Tos-Gly-Pro-Arg-p-nitroanilide, 1 µM inhibitor, after 120 min [1]: 47.2%; Ki [2]: 31.6 nM
5 | madanin-2 fragment 22-55 (peptide) | 6.11 | – | prolongation (fold) of thrombin time of human plasma, 10 µM fragment (18 s against 17 s); competition with fibrinogen for thrombin; species of the assay's thrombin not stated (human α-thrombin (human)): 1.06 fold
6 | madanin-2 fragment 1-21 (peptide) | 5.83 | – | prolongation (fold) of thrombin time of human plasma, 10 µM fragment (18 s against 17 s); competition with fibrinogen for thrombin; species of the assay's thrombin not stated (human α-thrombin (human)): 1.06 fold
7 | madanin-1 fragment 55-60 (peptide) | – | 1 | –
8 | madanin-1 fragment 1-21 (peptide) | 4.6 | 1 | –
